Literature values in paper PMC4785862.
Like-named read-outs stand apart in the source and are kept apart here.

What was measured:
IL-8 (Homo sapiens) [1] = target: IL-8 (Homo sapiens) (UniProt P10145)
IL-8 (Homo sapiens) [2] = target: IL-8 (Homo sapiens) (UniProt P10145); remark: listed apart in the source

Chain of IL-8 (Homo sapiens) (P10145 28-99): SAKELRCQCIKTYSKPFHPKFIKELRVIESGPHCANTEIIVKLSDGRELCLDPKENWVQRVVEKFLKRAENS
Chain of CXCR1 (P25024 whole entry): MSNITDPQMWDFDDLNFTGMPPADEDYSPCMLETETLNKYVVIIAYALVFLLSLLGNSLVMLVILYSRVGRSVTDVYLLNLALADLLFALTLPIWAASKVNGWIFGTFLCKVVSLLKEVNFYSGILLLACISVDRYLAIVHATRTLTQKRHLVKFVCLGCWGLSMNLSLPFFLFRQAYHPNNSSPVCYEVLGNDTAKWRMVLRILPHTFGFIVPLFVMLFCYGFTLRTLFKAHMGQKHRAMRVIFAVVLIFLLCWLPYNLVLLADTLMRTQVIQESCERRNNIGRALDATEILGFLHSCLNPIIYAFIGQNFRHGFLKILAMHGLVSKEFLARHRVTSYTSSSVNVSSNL
Chain of CXCR2 (P25025 whole entry): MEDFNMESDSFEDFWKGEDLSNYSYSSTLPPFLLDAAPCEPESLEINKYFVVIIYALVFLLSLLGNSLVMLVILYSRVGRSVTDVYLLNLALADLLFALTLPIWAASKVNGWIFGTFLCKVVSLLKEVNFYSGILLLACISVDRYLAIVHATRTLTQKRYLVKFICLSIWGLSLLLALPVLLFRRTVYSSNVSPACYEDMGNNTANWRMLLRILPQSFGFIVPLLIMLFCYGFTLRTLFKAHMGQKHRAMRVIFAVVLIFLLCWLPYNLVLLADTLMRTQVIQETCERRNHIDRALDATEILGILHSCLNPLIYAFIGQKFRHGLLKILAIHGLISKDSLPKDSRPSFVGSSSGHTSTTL

| Substance | Kd (IL-8 (Homo sapiens) [1]) [nM] | Kd (IL-8 (Homo sapiens) [2]) [nM] |
| --- | --- | --- |
| CXCR1 (from UniProt P25024) | 5 |  |
| CXCR2 (from UniProt P25025) |  | 2.5 |
